Literature values, collected in publication PMC6963778.

Biological target: RNF4 (Homo sapiens) (UniProt P78317)

## RNF4 (from UniProt P78317)
  Kd: 0.18 µM
